Measurements: patent publication US20250230247A1 (DREN BIO, published 2025)
Each block holds one binder with its values, some of them ahead of it.

Legend:
Trop-2 [1] = molecular target: T1, Trop-2 (human, UniProt P09758 27-323); test: flow cytometry on A431 cells (MFI)
T1 construct: whole, on cells; also called Trop-2 on A431, HeLa, BxPC-3, SiHa and Capan-2 cells
T1 sequence (looked up): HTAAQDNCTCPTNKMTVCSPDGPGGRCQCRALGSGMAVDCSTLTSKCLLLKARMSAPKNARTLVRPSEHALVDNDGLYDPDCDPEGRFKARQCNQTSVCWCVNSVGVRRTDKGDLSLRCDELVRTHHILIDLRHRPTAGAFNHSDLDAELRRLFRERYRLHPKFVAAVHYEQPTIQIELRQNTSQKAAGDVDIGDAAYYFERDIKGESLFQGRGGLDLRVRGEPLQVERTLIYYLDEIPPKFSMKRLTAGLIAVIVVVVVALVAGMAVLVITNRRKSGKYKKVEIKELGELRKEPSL

Trop-2 [2] = molecular target: T1, Trop-2; test: flow cytometry on BxPC-3 cells, AF647 goat anti-human secondary, 4PL fit; curve still rising (about 3,500,000 MFI) at the highest concentration, 300 nM
Description: (§1) The secondary antibody (AF647 goat Anti-Human) was used for detection by flow cytometry. Binding EC50 was determined using four-parameter logistic (4PL) non-linear regression.

Trop-2 [3] = molecular target: T1, Trop-2; test: flow cytometry on Capan-2 cells, AF647 goat anti-human secondary, 4PL fit; curve reaches about 1,720,000 MFI at 300 nM and starts to flatten
Description: as §1

Trop-2 [4] = molecular target: T1, Trop-2; test: flow cytometry on HeLa cells, AF647 goat anti-human secondary, 4PL fit; curve plateaus at about 145,000 MFI at 100-300 nM
Description: as §1

Trop-2 [5] = molecular target: T1, Trop-2; test: flow cytometry on SiHa cells, AF647 goat anti-human secondary, 4PL fit; curve still rising (about 89,000 MFI) at the highest concentration, 300 nM
Description: as §1

human Dectin-1 isoform A [6] = molecular target: T2, human Dectin-1 isoform A (human, UniProt Q9BXN2 1-247); test: flow cytometry on HEK Blue Dectin 1a cells (MFI)
T2 construct: also called hDectin-1a; Dectin-1 on HEK-Blue hDectin-1a cells
T2 sequence: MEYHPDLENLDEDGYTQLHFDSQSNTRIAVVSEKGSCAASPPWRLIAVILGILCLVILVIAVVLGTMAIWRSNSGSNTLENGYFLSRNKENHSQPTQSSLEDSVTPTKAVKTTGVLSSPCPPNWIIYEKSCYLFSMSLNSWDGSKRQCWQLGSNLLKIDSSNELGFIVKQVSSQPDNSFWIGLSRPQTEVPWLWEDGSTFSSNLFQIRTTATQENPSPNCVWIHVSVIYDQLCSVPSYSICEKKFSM

Nectin-4 = molecular target: T3, Nectin-4 (UniProt Q96NY8 32-510, limits assumed); test: flow cytometry on Nectin-4-expressing A431 cells (lower panel), AF647 goat anti-human IgG secondary, 4PL fit; curve still rising (about 92,000 MFI) at 300 nM, no plateau
T3 construct: whole, on cells; also called PVRL4; Nectin-4 on A431 cells
T3 sequence (looked up): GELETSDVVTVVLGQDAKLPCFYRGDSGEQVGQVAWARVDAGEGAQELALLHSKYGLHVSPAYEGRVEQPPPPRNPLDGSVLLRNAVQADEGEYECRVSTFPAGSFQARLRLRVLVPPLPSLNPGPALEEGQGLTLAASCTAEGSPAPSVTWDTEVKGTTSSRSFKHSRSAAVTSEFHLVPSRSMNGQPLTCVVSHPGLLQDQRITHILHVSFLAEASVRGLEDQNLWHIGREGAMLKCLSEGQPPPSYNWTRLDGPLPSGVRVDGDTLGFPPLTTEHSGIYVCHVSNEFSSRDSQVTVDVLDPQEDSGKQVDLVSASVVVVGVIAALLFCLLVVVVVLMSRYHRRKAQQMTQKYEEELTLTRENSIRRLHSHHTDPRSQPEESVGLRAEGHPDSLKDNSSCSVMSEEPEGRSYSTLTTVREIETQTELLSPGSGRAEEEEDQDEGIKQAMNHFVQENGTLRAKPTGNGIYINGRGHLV
Description: The secondary antibody (AF647 goat Anti-human IgG) was used for detection by flow cytometry. Binding EC50 values were determined using four parameter logistic (4PL) non-linear regression.

human Dectin-1 isoform A [7] = molecular target: T2, human Dectin-1 isoform A; test: flow cytometry on HEK293F hDectin-1a FL cells (summary table)
Description: (§2) Binding of Dectin-1 antibodies to Dectin-1 expressing cells Dectin-1 expressing cells (HEK Blue hDectin-1-a, HEK Blue hDectin-1-b, HEK293F hDectin-1 a FL, human monocytes or cyno monocytes) were plated at 1×10⁵-2×10⁵ cells per well in non-tissue culture treated, 96 well V bottom plates. Additionally, human monocytes were incubated in human FcgR blocking antibody (Biolegend, San Diego, CA) for 10 minutes at room temperature to reduce binding of the antibodies to the Fc receptor.
(§3) For detection of mouse primary antibodies, the cells were incubated with a fluorescently labeled AF647 anti-mouse Fc-specific secondary antibody (Jackson Immuno). […] Data acquisition was performed using a CytoFlex flow cytometer (Beckman Coulter, Atlanta, GA) and analyzed using Graphpad Prism 8.4.

human Dectin-1 isoform A [8] = molecular target: T2, human Dectin-1 isoform A; test: flow cytometry on HEK-Blue hDectin-1a cells
Description: as §2, §3

human Dectin-1 isoform B [9] = molecular target: T4, human Dectin-1 isoform B (human, UniProt Q9BXN2 1-247); test: flow cytometry on HEK-Blue hDectin-1b cells (summary table)
T4 construct: also called hDectin-1b; Dectin-1 on HEK Blue hDectin-1-b cells
T4 sequence: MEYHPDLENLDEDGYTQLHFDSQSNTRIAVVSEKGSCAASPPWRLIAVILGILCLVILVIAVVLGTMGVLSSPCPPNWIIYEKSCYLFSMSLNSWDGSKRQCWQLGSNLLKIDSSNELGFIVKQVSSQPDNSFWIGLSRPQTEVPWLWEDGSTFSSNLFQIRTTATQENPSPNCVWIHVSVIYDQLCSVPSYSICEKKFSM
Description: as §2, §3

human Dectin-1 isoform A [10] = molecular target: T2, human Dectin-1 isoform A; test: flow cytometry on HEK293F hDectin-1a FL cells
Description: as §2, §3

[11] = molecular target: T5, cynomolgus monkey Dectin-1 expressed on monocytes (cynomolgus monkey, UniProt A0A2K5UXY6 35-281); test: flow cytometry, cynomolgus monocytes
T5 construct: whole, on cells; also called cynomolgus Dectin-1; cyno Dectin-1
T5 sequence: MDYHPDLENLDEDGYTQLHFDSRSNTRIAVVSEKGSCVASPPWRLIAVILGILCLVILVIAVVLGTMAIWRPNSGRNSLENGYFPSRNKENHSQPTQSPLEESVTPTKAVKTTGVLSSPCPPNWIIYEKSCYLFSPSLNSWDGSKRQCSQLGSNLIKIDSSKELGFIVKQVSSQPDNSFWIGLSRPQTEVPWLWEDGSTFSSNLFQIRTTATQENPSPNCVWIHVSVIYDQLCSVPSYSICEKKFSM
Description: as §2, §3
The binding was assessed by flow cytometry analysis of cynomolgus monkey monocytes derived from PBMCs.

human Dectin-1 isoform B [12] = molecular target: T4, human Dectin-1 isoform B; test: flow cytometry on HEK-Blue hDectin-1b cells
Description: as §2, §3

human Dectin-1 isoform A [13] = molecular target: T2, human Dectin-1 isoform A; test: flow cytometry on HEK-Blue hDectin-1a cells (summary table)
Description: as §2, §3

human Dectin-1 isoform A [14] = molecular target: T2, human Dectin-1 isoform A; test: flow cytometry, HEK-Blue hDectin-1a cells
Description: as §2, §3

- EC50 (Trop-2 [1]): 9.04 nM
- EC50 (Trop-2 [2]): 348 nM
- EC50 (Trop-2 [3]): 59.4 nM
- EC50 (Trop-2 [4]): 26.2 nM
- EC50 (Trop-2 [5]): 77.4 nM
- EC50 (human Dectin-1 isoform A [6]): 0.958 nM
B1: 2M24/Trop-2 hIgG1 bispecific antibody (bispecific antibody, V domains shown)
VH 1: QVQLVQSGAEVKKPGASVKVSCKSSGYTFTDYYIHWVRQAPGQGLEWMGWINPNSGDTNYAQKFQGRITMTRDTSISTAYLELSRLRSDDTAVFYCARNSGSYSFGYWGQGTLVTVSS
VL 1: DIQMTQSPSSVSASVGDRVTITCRASQGISSWLAWYQQKPGKAPKLLIFGASSLQSGVPSRFSGSGSGTDFTLTVSSLQPEDFATYYCQQAYSFPFTFGPGTKVDIE
VH 2: QVQLQQSGSELKKPGASVKVSCKASGYTFTNYGMNWVKQAPGQGLKWMGWINTYTGEPTYTDDFKGRFAFSLDTSVSTAYLQISSLKADDTAVYFCARGGFGSSYWYFDVWGQGSLVTVSS
VL 2: DIQLTQSPSSLSASVGDRVSITCKASQDVSIAVAWYQQKPGKAPKLLIYSASYRYTGVPDRFSGSGSGTDFTLTISSLQPEDFAVYYCQQHYITPLTFGAGTKVEIK
notes: human IgG1; also called anti-Dectin-1 (2M24)/anti-Trop-2 bispecific antibody

- EC50 (Nectin-4): ~32 nM
B2: 2M24/Nectin-4 hIgG1 bispecific antibody (bispecific antibody, V domains shown)
VH 1: QVQLVQSGAEVKKPGASVKVSCKSSGYTFTDYYIHWVRQAPGQGLEWMGWINPNSGDTNYAQKFQGRITMTRDTSISTAYLELSRLRSDDTAVFYCARNSGSYSFGYWGQGTLVTVSS
VL 1: DIQMTQSPSSVSASVGDRVTITCRASQGISSWLAWYQQKPGKAPKLLIFGASSLQSGVPSRFSGSGSGTDFTLTVSSLQPEDFATYYCQQAYSFPFTFGPGTKVDIE
VH 2: EVQLVESGGGLVQPGGSLRLSCAASGFTFSSYNMNWVRQAPGKGLEWVSYISSSSSTIYYADSVKGRFTISRDNAKNSLSLQMNSLRDEDTAVYYCARAYYYGMDVWGQGTTVTVSS
VL 2: DIQMTQSPSSVSASVGDRVTITCRASQGISGWLAWYQQKPGKAPKFLIYAASTLQSGVPSRFSGSGSGTDFTLTISSLQPEDFATYYCQQANSFPPTFGGGTKVEIK
notes: human IgG1; DuetMab mutations F126C and C220V (heavy), S121C and C214V (light)

- EC50 (human Dectin-1 isoform A [7]): 1.1 nM
- EC50 (human Dectin-1 isoform A [8]): 0.4 nM
- EC50 (human Dectin-1 isoform B [9]): 1 nM
- EC50 (human Dectin-1 isoform A [10]): 1.1 nM
- EC50 [11]: 0.3 nM
- EC50 (human Dectin-1 isoform B [12]): 1 nM
- EC50 (human Dectin-1 isoform A [13]): 0.4 nM
B3: anti-human Dectin-1 antibody clone 2M24 (mIgG1) (antibody, V domains shown)
VH: QVQLVQSGAEVKKPGASVKVSCKSSGYTFTDYYIHWVRQAPGQGLEWMGWINPNSGDTNYAQKFQGRITMTRDTSISTAYLELSRLRSDDTAVFYCARNSGSYSFGYWGQGTLVTVSS
VL: DIQMTQSPSSVSASVGDRVTITCRASQGISSWLAWYQQKPGKAPKLLIFGASSLQSGVPSRFSGSGSGTDFTLTVSSLQPEDFATYYCQQAYSFPFTFGPGTKVDIE
notes: hybridoma antibody with human variable and mouse constant domains (mIgG1); also called 2M24 clone; mIgG1 2M24

- EC50 (human Dectin-1 isoform A [14]): 1.6 nM
B4: fully human 2M24 anti-Dectin-1 antibody (hIgG4) (antibody, V domains shown)
VH: QVQLVQSGAEVKKPGASVKVSCKSSGYTFTDYYIHWVRQAPGQGLEWMGWINPNSGDTNYAQKFQGRITMTRDTSISTAYLELSRLRSDDTAVFYCARNSGSYSFGYWGQGTLVTVSS
VL: DIQMTQSPSSVSASVGDRVTITCRASQGISSWLAWYQQKPGKAPKLLIFGASSLQSGVPSRFSGSGSGTDFTLTVSSLQPEDFATYYCQQAYSFPFTFGPGTKVDIE
notes: human IgG4; also called 2M24 (hIgG4); hIgG4 2M24
